Experimental data taken from paper PMC3176292, “Mutations in Protein-Binding Hot-Spots on the Hub Protein Smad3 Differentially Affect Its Protein Interactions and Smad3-Regulated Gene Expression” (PLoS ONE, 2011).
Positions count from the first letter of the chain named. Names may count otherwise.

B1: Renilla luciferase-Smad3 C338A (natural protein, UniProt P84022 1-425, looked up)
chain: MSSILPFTPPIVKRLLGWKKGEQNGQEEKWCEKAVKSLVKKLKKTGQLDELEKAITTQNVNTKCITIPRSLDGRLQVSHRKGLPHVIYCRLWRWPDLHSHHELRAMELCEFAFNMKKDEVCVNPYHYQRVETPVLPPVLVPRHTEIPAEFPPLDDYSHSIPENTNFPAGIEPQSNIPETPPPGYLSEDGETSDHQMNHSMDAGSPNLSPNPMSPAHNNLDLQPVTYCEPAFWCSISYYELNQRVGETFHASQPSMTVDGFTDPSNSERFCLGLLSNVNRNAAVELTRRHIGRGVRLYYIGGEVFAECLSDSAIFVQSPNCNQRYGWHPATVCKIPPGANLKIFNNQEFAALLAQSVNQGFEAVYQLTRMCTIRMSFVKGWGAEYRRQTVTSTPCWIELHLNGPLQWLDKVLTQMGSPSIRCSSVS
notes: Smad3; source: HEK-293, transfected together with constitutively active Alk5, in lysate
B2: Renilla luciferase-Smad3 Q322A/Y324A (natural protein, UniProt P84022 1-425, looked up)
chain: B1 chain with Q322A, Y324A, A338C
notes: as for B1
B3: Renilla luciferase-Smad3 S254A (natural protein, UniProt P84022 1-425, looked up)
chain: B1 chain with S254A, A338C
notes: as for B1
B4: Renilla luciferase-Smad3 V224A (natural protein, UniProt P84022 1-425, looked up)
chain: B1 chain with V224A, A338C
notes: as for B1
B5: Renilla luciferase-Smad3 E267A (natural protein, UniProt P84022 1-425, looked up)
chain: B1 chain with E267A, A338C
notes: as for B1
B6: Renilla luciferase-Smad3 W326A (natural protein, UniProt P84022 1-425, looked up)
chain: B1 chain with W326A, A338C
notes: as for B1
B7: Renilla luciferase-Smad3 K341A (natural protein, UniProt P84022 1-425, looked up)
chain: B1 chain with A338C, K341A
notes: as for B1
B8: Renilla luciferase-Smad3 Y226A (natural protein, UniProt P84022 1-425, looked up)
chain: B1 chain with Y226A, A338C
notes: as for B1
B9: Renilla luciferase-Smad3 Y297A (natural protein, UniProt P84022 1-425, looked up)
chain: B1 chain with Y297A, A338C
notes: as for B1
B10: Renilla luciferase-Smad3 P335A/P336A (natural protein, UniProt P84022 1-425, looked up)
chain: B1 chain with P335A, P336A, A338C
notes: as for B1
B11: Renilla luciferase-Smad3 Y298A (natural protein, UniProt P84022 1-425, looked up)
chain: B1 chain with Y298A, A338C
notes: as for B1
B12: Renilla luciferase-Smad3 V356R (natural protein, UniProt P84022 1-425, looked up)
chain: B1 chain with A338C, V356R
notes: as for B1
B13: Renilla luciferase-Smad3 W406A (natural protein, UniProt P84022 1-425, looked up)
chain: B1 chain with A338C, W406A
notes: as for B1
B14: Renilla luciferase-Smad3 L340A (natural protein, UniProt P84022 1-425, looked up)
chain: B1 chain with A338C, L340A
notes: as for B1

Legend:
Experiment in all cases: co-IP; LUMIER: Renilla luciferase-Smad3 and Flag-tagged partner co-expressed with constitutively active Alk5 in HEK-293; Flag protein captured from cleared lysate (TNE: 10 mM Tris-HCl pH 7.8, 150 mM NaCl, 1 mM EDTA, 1% Igepal CA-630) on anti-Flag 96-well plates, 2 h at 4 °C; co-precipitated Renilla luciferase activity, TrxGA background subtracted, percent of wild-type Smad3
Conditions in all cases: partners not purified
Flag-SARA, full length = biological target: T1, Flag-SARA, full length (UniProt O95405 1-1425)
T1 construct: SARA; plasmid pCMV5b-Flag-SARA; also called SARA FL; source: HEK-293, transfected, in lysate
T1 sequence (looked up): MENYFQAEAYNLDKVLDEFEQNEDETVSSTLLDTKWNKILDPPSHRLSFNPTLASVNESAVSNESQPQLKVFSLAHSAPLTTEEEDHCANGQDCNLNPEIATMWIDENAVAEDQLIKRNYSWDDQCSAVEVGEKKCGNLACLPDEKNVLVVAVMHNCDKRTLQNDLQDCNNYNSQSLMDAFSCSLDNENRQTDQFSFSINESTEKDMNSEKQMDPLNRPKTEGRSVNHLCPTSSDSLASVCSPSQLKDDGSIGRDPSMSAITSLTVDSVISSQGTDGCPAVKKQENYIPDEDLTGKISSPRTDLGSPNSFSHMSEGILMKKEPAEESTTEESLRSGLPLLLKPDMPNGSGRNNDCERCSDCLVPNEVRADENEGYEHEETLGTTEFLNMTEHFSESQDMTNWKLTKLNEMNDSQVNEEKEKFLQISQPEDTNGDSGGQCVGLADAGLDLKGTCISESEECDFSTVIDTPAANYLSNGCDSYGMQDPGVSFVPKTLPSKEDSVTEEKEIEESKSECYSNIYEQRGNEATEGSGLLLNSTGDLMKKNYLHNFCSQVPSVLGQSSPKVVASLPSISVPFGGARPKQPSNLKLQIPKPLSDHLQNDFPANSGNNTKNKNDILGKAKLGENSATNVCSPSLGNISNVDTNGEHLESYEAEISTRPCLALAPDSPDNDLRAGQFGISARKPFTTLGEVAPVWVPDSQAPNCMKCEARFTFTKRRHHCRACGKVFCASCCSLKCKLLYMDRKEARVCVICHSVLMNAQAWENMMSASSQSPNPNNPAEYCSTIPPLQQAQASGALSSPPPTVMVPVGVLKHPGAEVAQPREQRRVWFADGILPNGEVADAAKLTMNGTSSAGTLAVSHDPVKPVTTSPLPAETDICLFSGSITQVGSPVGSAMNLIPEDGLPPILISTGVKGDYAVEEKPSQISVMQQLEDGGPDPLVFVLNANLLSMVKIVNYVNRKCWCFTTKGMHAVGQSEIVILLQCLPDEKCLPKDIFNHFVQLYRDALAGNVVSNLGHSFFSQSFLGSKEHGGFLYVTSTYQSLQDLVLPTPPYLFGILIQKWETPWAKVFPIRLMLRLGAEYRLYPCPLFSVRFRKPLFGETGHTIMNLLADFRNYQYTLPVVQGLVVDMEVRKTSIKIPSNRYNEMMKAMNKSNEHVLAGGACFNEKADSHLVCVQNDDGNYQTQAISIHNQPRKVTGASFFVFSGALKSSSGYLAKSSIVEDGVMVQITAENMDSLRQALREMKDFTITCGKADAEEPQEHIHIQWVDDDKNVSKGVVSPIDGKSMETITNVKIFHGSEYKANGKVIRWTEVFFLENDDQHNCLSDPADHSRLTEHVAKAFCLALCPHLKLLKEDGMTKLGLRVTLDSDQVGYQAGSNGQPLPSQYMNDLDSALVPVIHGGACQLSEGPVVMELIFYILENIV

[1] = biological target: T2, Flag-SkiW274E, full length (UniProt P12755 1-728, W274E)
T2 construct: plasmid pCMV5b-Flag-SkiW274E (from K. Luo); also called SkiW274E FL; SKI274E; source: HEK-293, transfected, in lysate
T2 sequence (looked up): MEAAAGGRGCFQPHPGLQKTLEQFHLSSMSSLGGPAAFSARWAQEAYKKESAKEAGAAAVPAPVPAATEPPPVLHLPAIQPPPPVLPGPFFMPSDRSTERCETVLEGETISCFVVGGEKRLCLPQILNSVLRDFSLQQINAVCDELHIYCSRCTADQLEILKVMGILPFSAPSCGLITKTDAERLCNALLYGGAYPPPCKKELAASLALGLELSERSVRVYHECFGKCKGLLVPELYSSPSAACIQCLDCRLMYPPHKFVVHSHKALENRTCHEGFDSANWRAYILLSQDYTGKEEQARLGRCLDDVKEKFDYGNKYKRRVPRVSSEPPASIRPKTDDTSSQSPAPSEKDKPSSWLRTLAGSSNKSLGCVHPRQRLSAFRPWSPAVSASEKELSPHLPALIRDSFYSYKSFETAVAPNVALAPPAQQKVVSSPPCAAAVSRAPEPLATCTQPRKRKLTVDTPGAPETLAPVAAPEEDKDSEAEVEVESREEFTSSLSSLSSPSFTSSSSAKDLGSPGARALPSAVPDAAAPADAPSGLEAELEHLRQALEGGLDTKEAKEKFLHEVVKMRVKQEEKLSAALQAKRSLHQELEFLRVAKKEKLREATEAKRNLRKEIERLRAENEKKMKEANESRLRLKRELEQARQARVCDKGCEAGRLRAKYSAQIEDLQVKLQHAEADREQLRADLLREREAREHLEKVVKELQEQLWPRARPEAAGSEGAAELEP

Flag-Smad3, full length = biological target: T3, Flag-Smad3, full length (UniProt P84022 1-425)
T3 construct: Smad3; plasmid pCMV5-Flag-Smad3 (from J. Massagué); bait for Smad3-Smad3 association; also called Smad3 FL; source: HEK-293, transfected together with constitutively active Alk5, in lysate

Row | Binder | percent binding relative to wild-type Smad3 (Flag-SARA, full length) | percent binding relative to wild-type Smad3 [1] | percent binding relative to wild-type Smad3 (Flag-Smad3, full length)
1 | B1 | 136% | 111% | 100%
2 | B2 | 12% | 100% | 143%
3 | B3 | 154% | 78% | 105%
4 | B4 | 42% | 212% | 118%
5 | B5 | 82% | 137% | 222%
6 | B6 | 13% | 88% | 159%
7 | B7 | 29% | 55% | 95%
8 | B8 | 32% | 89% | 161%
9 | B9 | 38% | 29% | 82%
10 | B10 | 16% | 118% | 109%
11 | B11 | 150% | 121% | 113%
12 | B12 | 16% | 30% | 275%
13 | B13 | 12% | 21% | 564%
14 | B14 | 58% | 57% | 99%
